The text below walks through data of patent US20080311122A1, “Antagonists of Hmgb1 and/or Rage and Methods of Use Thereof” (Medimmune, LLC, priority 2005, published 2008).

Experiment [1] addresses HMGB1 in DNA immune complexes of human lupus plasma (human) (UniProt P09429). Briefly: cell-based or functional assay.
Experiment [2] addresses HMG1 purified from bovine (calf) thymus (bovine) (UniProt P10103). Briefly: cell-based or functional assay.

Chain of HMGB1 in DNA immune complexes of human lupus plasma (human) (P09429 whole entry, one chain of several): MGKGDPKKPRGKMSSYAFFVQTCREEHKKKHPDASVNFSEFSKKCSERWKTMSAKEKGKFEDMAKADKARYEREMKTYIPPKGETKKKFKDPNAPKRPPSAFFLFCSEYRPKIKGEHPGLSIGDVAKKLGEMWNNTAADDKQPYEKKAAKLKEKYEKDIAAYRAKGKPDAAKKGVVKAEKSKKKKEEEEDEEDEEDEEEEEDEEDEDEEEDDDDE
Chain of HMG1 purified from bovine (calf) thymus (bovine) (P10103 2-215 limits assumed): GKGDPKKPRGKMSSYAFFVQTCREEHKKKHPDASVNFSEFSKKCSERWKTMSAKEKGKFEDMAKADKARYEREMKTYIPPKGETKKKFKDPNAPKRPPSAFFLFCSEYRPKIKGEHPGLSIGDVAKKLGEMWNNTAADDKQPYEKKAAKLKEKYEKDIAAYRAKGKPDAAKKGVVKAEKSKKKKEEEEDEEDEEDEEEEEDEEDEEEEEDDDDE

In experiment [1], “RAGE-Fc fusion protein (species not stated)” yielded a decrease in IFIT1 mRNA in human PBMC stimulated with 20% lupus plasma of 75%. Further, the IFN-a release from mouse bone marrow cells, HMGB/CpG-A mediated enhanced TLR9 signaling in experiment [2] is greater than 95%.
